Results on five molecules are retold here after publication PMC5693625.

Holding throughout (experiment): functional binding isotherm
Data set [1] concerns the target T1, DDX3X (Homo sapiens, UniProt O00571 1-662).
For data set [2], the target named is T1, DDX3X. The source holds these as a separate data set.
For data set [3], the target named is T1, DDX3X. This is another data set of the same source.

Like-named read-outs stand apart in the source and are kept apart here.

T1 sequence (O00571 whole entry): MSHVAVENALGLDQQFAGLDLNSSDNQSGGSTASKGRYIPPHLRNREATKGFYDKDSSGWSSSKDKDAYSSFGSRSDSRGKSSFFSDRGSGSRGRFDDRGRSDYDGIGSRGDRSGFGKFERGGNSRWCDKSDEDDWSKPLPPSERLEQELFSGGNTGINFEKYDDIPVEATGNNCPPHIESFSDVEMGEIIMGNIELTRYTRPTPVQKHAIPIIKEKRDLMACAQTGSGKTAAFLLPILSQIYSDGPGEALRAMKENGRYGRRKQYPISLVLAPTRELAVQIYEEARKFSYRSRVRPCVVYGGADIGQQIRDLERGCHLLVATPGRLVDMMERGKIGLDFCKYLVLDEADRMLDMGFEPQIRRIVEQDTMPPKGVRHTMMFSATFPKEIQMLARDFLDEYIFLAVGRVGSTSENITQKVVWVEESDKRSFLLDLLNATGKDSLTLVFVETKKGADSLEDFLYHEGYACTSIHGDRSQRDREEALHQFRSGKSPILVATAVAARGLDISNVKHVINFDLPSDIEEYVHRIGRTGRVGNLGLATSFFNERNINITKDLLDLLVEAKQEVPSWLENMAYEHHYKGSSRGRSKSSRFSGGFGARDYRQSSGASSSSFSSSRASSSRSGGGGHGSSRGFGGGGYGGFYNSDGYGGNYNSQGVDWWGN

B1: 16 bp RNA, 15 nt 3' tail (dsRNA)
RNA 1: CCGUCUUUACGGUGCU
RNA 2: AGCACCGUAAAGACGGUAAAACAAAACAAAA
As for B1, the “apparent K (half saturation)” value in data set [1] came out at 298 ± 4 nM.

B2: 16 bp RNA, 25 nt 5' tail (R16-5'a/R41-5'a) (dsRNA)
RNA 1: AGCACCGUAAAGACGC
RNA 2: AAAACAAAACAAAACAAAACAAAAUGCGUCUUUACGGUGCU
Regarding B2, the results for the “apparent K (half saturation)” value in data set [2] and in data set [1] were 119 ± 35 nM and 127 ± 20 nM, respectively.

B3: 13 bp RNA, 25 nt 5' tail (R13-5'a/R38-5'a) (dsRNA)
RNA 1: CGAAAUGCCACGA
RNA 2: AAAACAAAACAAAACAAAACAAAAUUCGUGGCAUUUCG
In the case of B3, the “apparent K (half saturation)” value in data set [3] came out at 139 ± 21 nM.

B4: 16 bp RNA, 25 nt 3' tail (R16-3'c/R41-3'c) (dsRNA)
RNA 1: CCGUCUUUACGGUGCU
RNA 2: AGCACCGUAAAGACGGUAAAACAAAACAAAACAAAACAAAA
On to B4, for which the “apparent K (half saturation)” value in data set [1] turned out to be 118 ± 5 nM.

B5: 19 bp RNA, 25 nt 5' tail (R19-5'c/R44-5'c) (dsRNA)
RNA 1: CAGAGGAGCAGAGGGAGCA
RNA 2: AAACUACGACUACAGUAACUACGACUGCUCCCUCUGCUCCUCUG
Regarding B5, the “apparent K (half saturation)” value in data set [2] worked out at 166 ± 18 nM.
